T1: CYP6P3 (Anopheles gambiae, UniProt Q8T632)
T1 construct: recombinant, pCWori+ vector, E. coli membranes co-expressing An. gambiae CPR; cytochrome b5 added in metabolism assays; with NADPH--cytochrome P450 reductase
T1 sequence (Q8T632 1-509): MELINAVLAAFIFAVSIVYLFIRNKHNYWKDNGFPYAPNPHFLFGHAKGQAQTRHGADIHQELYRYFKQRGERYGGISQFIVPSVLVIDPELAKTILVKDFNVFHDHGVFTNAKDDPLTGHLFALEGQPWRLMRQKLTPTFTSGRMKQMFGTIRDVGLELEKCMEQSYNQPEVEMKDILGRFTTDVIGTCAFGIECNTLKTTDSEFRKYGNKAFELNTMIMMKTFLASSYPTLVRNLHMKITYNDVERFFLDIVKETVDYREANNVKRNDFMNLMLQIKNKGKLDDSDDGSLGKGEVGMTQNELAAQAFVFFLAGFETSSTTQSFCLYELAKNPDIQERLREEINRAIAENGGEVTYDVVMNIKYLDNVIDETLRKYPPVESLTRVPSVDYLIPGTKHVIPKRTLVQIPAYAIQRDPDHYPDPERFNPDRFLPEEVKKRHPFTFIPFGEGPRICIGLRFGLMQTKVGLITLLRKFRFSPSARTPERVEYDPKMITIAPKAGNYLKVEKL
T1 sequence (Q86QH5 1-679 partner): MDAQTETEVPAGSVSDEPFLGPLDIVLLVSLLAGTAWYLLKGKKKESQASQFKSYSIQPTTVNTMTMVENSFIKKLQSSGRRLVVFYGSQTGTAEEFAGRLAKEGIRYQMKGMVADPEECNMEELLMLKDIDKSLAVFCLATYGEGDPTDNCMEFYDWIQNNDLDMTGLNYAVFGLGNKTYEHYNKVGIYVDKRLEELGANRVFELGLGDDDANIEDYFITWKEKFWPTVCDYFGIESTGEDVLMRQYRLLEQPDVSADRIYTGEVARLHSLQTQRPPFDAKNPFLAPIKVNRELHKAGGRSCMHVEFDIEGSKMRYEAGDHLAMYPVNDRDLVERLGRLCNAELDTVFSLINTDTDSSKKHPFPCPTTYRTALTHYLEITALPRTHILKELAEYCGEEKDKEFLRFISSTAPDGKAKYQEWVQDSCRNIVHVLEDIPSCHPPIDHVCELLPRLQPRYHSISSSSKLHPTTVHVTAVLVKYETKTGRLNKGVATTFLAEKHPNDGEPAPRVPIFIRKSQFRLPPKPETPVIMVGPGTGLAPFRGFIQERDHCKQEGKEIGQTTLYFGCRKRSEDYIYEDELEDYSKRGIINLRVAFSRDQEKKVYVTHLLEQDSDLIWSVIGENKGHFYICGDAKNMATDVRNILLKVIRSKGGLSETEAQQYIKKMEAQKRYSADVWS

T2: CYP9K1 (Anopheles gambiae, UniProt Q8T633)
T2 construct: recombinant, pCWori+ vector, E. coli membranes co-expressing An. gambiae CPR; cytochrome b5 added; with NADPH--cytochrome P450 reductase
T2 sequence (Q8T633 1-531): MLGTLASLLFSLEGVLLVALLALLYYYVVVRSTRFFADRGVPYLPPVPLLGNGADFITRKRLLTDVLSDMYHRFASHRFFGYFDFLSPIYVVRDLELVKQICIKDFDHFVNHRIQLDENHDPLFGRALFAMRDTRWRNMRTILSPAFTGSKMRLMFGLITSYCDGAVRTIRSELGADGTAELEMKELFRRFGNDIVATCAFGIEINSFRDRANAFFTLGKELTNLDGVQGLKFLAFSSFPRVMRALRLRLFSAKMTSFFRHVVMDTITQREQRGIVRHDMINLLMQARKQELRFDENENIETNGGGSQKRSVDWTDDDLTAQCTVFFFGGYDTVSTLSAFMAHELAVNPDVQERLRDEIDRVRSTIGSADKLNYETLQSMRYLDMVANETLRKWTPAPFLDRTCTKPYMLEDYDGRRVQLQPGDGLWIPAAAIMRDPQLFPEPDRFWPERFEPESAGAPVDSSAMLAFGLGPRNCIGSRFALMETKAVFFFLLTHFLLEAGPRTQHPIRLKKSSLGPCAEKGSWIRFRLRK
T2 sequence (Q86QH5 1-679 partner): T1 sequence (Q86QH5 1-679 partner)

B1: CYP6P3 (Anopheles gambiae) (protein)
chain: T1 sequence (Q8T632 1-509)
notes: recombinant, pCWori+ vector, E. coli membranes co-expressing An. gambiae CPR; cytochrome b5 added in metabolism assays; with NADPH--cytochrome P450 reductase
B2: CYP9K1 (Anopheles gambiae) (protein)
chain: T2 sequence (Q8T633 1-531)
notes: recombinant, pCWori+ vector, E. coli membranes co-expressing An. gambiae CPR; cytochrome b5 added; with NADPH--cytochrome P450 reductase

Assays:
CYP6P3 = biological target: T1, CYP6P3; test: inhibition of diethoxyfluorescein (DEF) fluorescent probe metabolism; format: biochemical
CYP9K1 = biological target: T2, CYP9K1; test: inhibition of chlorfenapyr depletion, HPLC; format: biochemical
[1] = substrate: CCOCn1c(-c2ccc(Cl)cc2)c(C#N)c(Br)c1C(F)(F)F; test: tralopyril formation by HPLC, Michaelis-Menten fit; format: biochemical, Anopheles gambiae; settings: NADPH regeneration system, 0.8 µM cytochrome b5, 50 mM potassium phosphate pH 7.4, recombinant E. coli membranes

Molecule | IC50 (CYP6P3) [µM] | inhibition at 10 µM (CYP9K1) [%] | Km [1] [µM] | kcat [1] [s⁻¹]
CC1(C)C(C=C(Cl)Cl)C1C(=O)OC(C#N)c1cccc(Oc2ccccc2)c1 (stereo not drawn) [α-cypermethrin] | 16.7 | 56.8 |  | 
CCOCn1c(-c2ccc(Cl)cc2)c(C#N)c(Br)c1C(F)(F)F [chlorfenapyr] | 30.4 |  |  | 
B1 |  |  | 16.32 | 0.0285
B2 |  |  | 10.13 | 0.112

Reference: PMC10465574, “Chlorfenapyr metabolism by mosquito P450s associated with pyrethroid resistance identifies potential activation markers” (Scientific Reports, 2023)
